Reference: article PMC3128532

Biological target: MBP-tagged TANGO1-Coil2 (amino acids 1440-1650) (human) (UniProt Q5JRA6)
Assay: pull-down

Sequence of UniProt Q5JRA6 (Q5JRA6 1440-1650): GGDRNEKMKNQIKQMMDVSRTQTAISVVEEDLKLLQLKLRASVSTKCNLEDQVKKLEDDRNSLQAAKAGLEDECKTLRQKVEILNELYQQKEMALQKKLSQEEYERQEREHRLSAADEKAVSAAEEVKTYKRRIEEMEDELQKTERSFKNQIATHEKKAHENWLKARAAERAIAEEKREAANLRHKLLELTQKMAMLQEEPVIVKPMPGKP

stoichiometry N: 1
Substance: ColdTF-tagged cTAGE5-Coil2 (amino acids 301-650) (domain or fragment)
